Test results published in PMC3616737.

Columns and labels:
[1] = biological target: T1, XMRV reverse transcriptase (full-length, monomeric) (Xenotropic murine leukaemia …, UniProt A1Z651 658-1328); assay: SAXS
[2] = biological target: T1, XMRV reverse transcriptase …; assay: X-ray crystallography
[3] = biological target: T1, XMRV reverse transcriptase …; assay: SAXS; remark: listed apart in the source

B1: PPT-18 (DNA:RNA)
RNA: AGUCUCCAGAAAAAGGGGGGAAUGA
DNA: CATTCCCCCCTTTTTCTGGAGA
[1]
  binding result: binds

B2: hybrid 1 (DNA:RNA)
RNA: AACAGAGUGCGACACCUGAUUCCAU
DNA: TGGAATCAGGTGTCGCACTCTG
[2]
  binding result: binds

B3: PPT-19 (DNA:RNA)
RNA: UAGUCUCCAGAAAAAGGGGGGAAUG
DNA: ATTCCCCCCTTTTTCTGGAGAC
[3]
  binding result: binds
